From patent CN101407546A (UNIV CHINA PHARMA, dated 2009)

Target: 人肿瘤坏死因子-α (hTNF-α) (human, UniProt P01375 77-233)
Test: cell-based or functional assay

人肿瘤坏死因子-α (hTNF-α), sequence (P01375 77-233 limits assumed): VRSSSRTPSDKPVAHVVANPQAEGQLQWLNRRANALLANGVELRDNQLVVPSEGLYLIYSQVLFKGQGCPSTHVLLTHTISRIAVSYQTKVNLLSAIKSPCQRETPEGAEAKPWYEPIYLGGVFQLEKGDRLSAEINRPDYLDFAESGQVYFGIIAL

B1: 全人源抗hTNF-α单链抗体F6 (scFv, V domains shown)
VH: QVQLLQSAAEVKKPGESLKISCKGSGYSFTSYWIGWVRQMPGKGLEWMGIIYPGDSDTRYSPSFQGQVTISADKSISTAYLQWSSLKASDTAVYYCARFCSPWGQGTLVTV
VL: LQSVLTQPPSVSEAPRQRVTISCSGSSSNIGNNAVNWYQQLPGKAPKLLIYYDDLLPSGVSDRFSGSKSGTSASLAISGLQSEDEADYYCAAWDDSLCVFGGGTKLTVLG
- 对TNF-α诱导的L929细胞毒性的抑制作用 (L929 cytotoxicity neutralisation, MTT) IC50: ~15 nM
